According to patent US9365620B2, “Methods for treating pain” (NoNO NC., priority 2008, dated 2016):
Entries after “also recorded” stand apart in the source; their conditions may differ. Non-standard residues stand in square brackets, D forms with d. No end group written: not given here. Tle = CC(C)(C)[C@H](N)C(=O)O; Nva = CCC[C@H](N)C(=O)O

tested on: pain hypersensitivity after peripheral nerve injury; assay: Paw withdrawal threshold (von Frey) after chronic constriction injury of the sciatic nerve; assay type: in vivo, Sprague-Dawley rats; conditions: high dose, 10 mg/kg i.v., rats, 60, 90, 120 min; 10 mg/kg
Text: In these experiments, chronic constriction injury of the sciatic nerve was induced using the polyethylene cuff method (Mosconi T, Kruger L., Pain 1996, 64: 37-57). The left sciatic nerve of adult male Sprague-Dawley rats was exposed at mid-thigh level under halothane anesthesia. A polyethylene cuff (PE90 tubing, 2 mm in length) was slit open longitudinally and implanted around the sciatic nerve, and the animals were allowed to recover for a suitable period, e.g., 10-14 days. A sterile isotonic saline solution containing dissolved Tat-NR2B9c, or a saline-only control, was injected into the tail vein, with the animal under brief halothane anesthesia. Sensitivity to pain was measured by testing the paw withdrawal threshold of animals. Paw withdrawal thresholds to mechanical stimulation were assessed using Von-Frey filaments (Stoelting Co., Wood Dale, Ill., USA). Animals were placed in plastic cages with a plastic bottom. To test the tactile threshold required to evoke withdrawal of the stimulated paw, von Frey filaments (0.008-15.18 g) were applied perpendicularly to the plantar part of the hind paw in an ascending order. Each filament was applied for 5 times, and the paw withdrawal threshold was determined when there were three positive responses out of five times a filament was applied. To avoid tissue damage, the cut off threshold was assigned as 15.18 g.

Sequence	reversal of pain hypersensitivity (paw withdrawal threshold)
YGRKKRRQRRRKLSSIESDV (Synthetic peptide Tat-NR2B9c) [chimeric peptide of a standard tat peptide and …]	did not result in any apparent reversal of pain hypersensitivity; also recorded: had no effect on pain hypersensitivity; also recorded: showed no effect on pain hypersensitivity

same assay, conditions: low dose, 100 pmol per animal i.v., rats, day 10-14 after surgery

Sequence	reversal of pain hypersensitivity (paw withdrawal threshold)
YGRKKRRQRRRKLSSIESDV (Synthetic peptide Tat-NR2B9c) [chimeric peptide of a standard tat peptide and …]	reversed pain hypersensitivity; also recorded: showed a decrease in pain hypersensitivity

biological target: N-type Ca channels (Homo sapiens, UniProt Q00975); assay: not given; assay type: binding; conditions: peptide at 10 μM

Sequence	inhibition of radiolabeled ω-Conotoxin GVIA binding to N-type Ca channels [%]
YGRKKRRQRRRKLSSIESDV [Tat-NR2B9c] (Synthetic peptide Tat-NR2B9c) [chimeric peptide of a standard tat peptide and …]	100

biological target: N-type calcium channels (Mus musculus, UniProt O55017); assay: not given; assay type: cell-based, Swiss mice; conditions: not given

Sequence	Ca^2+ current shown as a percentage	inhibition of N-type calcium channel activity
FGRKKRRQRRRALSSIESDV (synthetic 1995 peptide F-Tat-NR2B9c K to A) [Peptide 1995]	97+/−0.2%	
KLSSIESDV (synthetic 1991 peptide 2B9c) [Peptide 1991, peptide 2B9c, the C-terminal portion of Tat-NR2B9c]	94+/−1.7%	no significant inhibition
YGRKKRRQRRR [Peptide 1990]	57+/−1.6%	
YGRKKRRQRRRALSSIESDV (synthetic 1994 peptide Tat-NR2B9c K to A) [Peptide 1994]	77+/−1.8%	no significant inhibition; also recorded: some reduction in the amount of N-type calcium channel activity
YGRKKRRQRRRKLSSIEADA (synthetic 1992 peptide Tat-NR2B9c-AA) [Peptide 1992]	74+/−2.4%	some reduction in the amount of N-type calcium channel activity
YGRKKRRQRRRKLSSIESDV [1987] ([dY]G[dR][dK][dK][dR][dR][dQ][dR][dR][dR][dK][dL][dS][dS][dI][dE][dS][dD][dV]) [Peptide 1987, D-isomer of Tat-NR2B9c]	82+/−2.2%	some reduction in the amount of N-type calcium channel activity
YGRKKRRQRRRKLSSIESDX [1976] (YGRKKRRQRRRKLSSIESD[Nva]) [Peptide 1976, …X where X=norvaline]	66+/−3.4%	
YGRKKRRQRRRKLSSIESDX [1977] (YGRKKRRQRRRKLSSIESD[Tle]) [Peptide 1977, …X where X=L-t-butyl-glycine]	65+/−5.1%	
